Target: c-Kit expressed on the cell surface of M-07e cells (human, UniProt P10721 26-976)
Test: cell-based or functional assay

Chain of c-Kit expressed on the cell surface of M-07e cells (P10721 26-976): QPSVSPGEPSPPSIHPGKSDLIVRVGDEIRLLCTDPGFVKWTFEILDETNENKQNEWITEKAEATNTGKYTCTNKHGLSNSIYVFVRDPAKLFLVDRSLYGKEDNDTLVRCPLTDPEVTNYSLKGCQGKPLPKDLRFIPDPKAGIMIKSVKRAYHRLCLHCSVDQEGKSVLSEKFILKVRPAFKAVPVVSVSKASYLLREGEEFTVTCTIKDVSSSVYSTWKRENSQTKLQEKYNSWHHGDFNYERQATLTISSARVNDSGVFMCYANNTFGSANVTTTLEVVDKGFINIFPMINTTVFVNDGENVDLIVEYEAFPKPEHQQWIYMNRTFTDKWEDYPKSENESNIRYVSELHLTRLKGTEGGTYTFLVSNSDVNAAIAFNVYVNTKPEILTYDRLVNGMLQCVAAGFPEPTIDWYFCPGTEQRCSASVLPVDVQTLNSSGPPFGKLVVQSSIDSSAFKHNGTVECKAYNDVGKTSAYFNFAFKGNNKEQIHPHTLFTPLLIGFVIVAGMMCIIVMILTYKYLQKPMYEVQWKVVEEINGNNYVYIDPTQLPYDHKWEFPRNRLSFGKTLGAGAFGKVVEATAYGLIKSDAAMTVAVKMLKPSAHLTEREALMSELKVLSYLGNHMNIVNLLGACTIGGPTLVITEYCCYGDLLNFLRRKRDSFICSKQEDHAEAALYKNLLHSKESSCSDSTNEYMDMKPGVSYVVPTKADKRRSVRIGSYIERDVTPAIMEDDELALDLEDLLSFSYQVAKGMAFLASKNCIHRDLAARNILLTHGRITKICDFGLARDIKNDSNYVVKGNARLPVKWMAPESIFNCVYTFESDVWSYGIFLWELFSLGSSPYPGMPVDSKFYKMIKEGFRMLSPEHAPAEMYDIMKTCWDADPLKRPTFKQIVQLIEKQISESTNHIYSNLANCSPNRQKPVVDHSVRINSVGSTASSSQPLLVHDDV

| IC50 (read off the curve) | Binder |
| --- | --- |
| ~0.3 nM | anti-siglec/anti-c-Kit bispecific JML-1/hSR1-1 (bispecific antibody, V domains shown) VH 1: KVQLLESGGGLVQPGRSLRLSCAASGFTFDDYGMHWVRQAPGKGLEWVSGISWNSGSIGYADSVKGRFTISRDNSKNTLYLQMNSLRAEDTAVYYCARGGQTIDIWGQGTMVTVSS VL 1: not shown VH 2: QVQLVQSGAEVKKPGASVKVSCKASGYTFTSYNMHWVRQAPGQGLEWMGVIYSGNGDTSYAQKFQGRVTMTADTSTSTAYMELSSLRSEDTAVYYCARERDTRFGNWGQGTLVTVSS VL 2: DIQLTQSPSSLSASVGDRATITCRASESVDIYGNSFMHWYQQKPGKAPKLLIYLASNLESGVPSRFSGSGSGTDFTLTISSVQPEDFATYYCQQNNEDPYTFGQGTKLEIK |
| ~0.2 nM | anti-siglec/anti-c-Kit bispecific hRND-3/hSR1-1 (bispecific antibody, V domains shown) VH 1: QVQLVQSGAEVKKPGASVKLSCKASGYAFTSYWMHWVRQAPGQRLEWIGEIYPTNGGTTYAQKFQGRATLTVDKSTSTAYMELSRLRSDDTAVYYCTIEDFYAMDYWGQGTTVTVSS VL 1: DIVMTQTPLSLSVTPGQPASISCKSSQSLLDSDGKTSLNWLLQKPGQSPQRLIYLVSKLDSGVPDRFSGSGSGTDFTLKISRVEAEDVGVYYCWQGTHFPYTFGQGTKLEIK VH 2: QVQLVQSGAEVKKPGASVKVSCKASGYTFTSYNMHWVRQAPGQGLEWMGVIYSGNGDTSYAQKFQGRVTMTADTSTSTAYMELSSLRSEDTAVYYCARERDTRFGNWGQGTLVTVSS VL 2: DIQLTQSPSSLSASVGDRATITCRASESVDIYGNSFMHWYQQKPGKAPKLLIYLASNLESGVPSRFSGSGSGTDFTLTISSVQPEDFATYYCQQNNEDPYTFGQGTKLEIK |

— patent US20260070975A1 (SANTA ANA BIO, published 2026)
